From PMC6210652, “Virus Sensor RIG-I Represses RNA Interference by Interacting with TRBP through LGP2 in Mammalian Cells”

What was measured:
Test in all cases: EMSA; 3 uM protein, 0.5 nM siRNA, 1.5 mM Mg2+; 20 mM Tris pH 8.0, 1.5 mM MgCl2, 50 mM NaCl, 1.5 mM DTT, 100 ng/uL sonicated salmon sperm DNA, 5% glycerol, 0.4 U/mL RNasin; 30 min on ice; 9% PAGE in 0.25x TBE
Details in all cases: protein: recombinant; label: 5'-32P on guide strand; siRNA duplex 21-nt strands, 19 bp, 3' overhangs 2 nt on both strands
MDA5 = molecular target: T1, MDA5 (UniProt Q9BYX4 1-1025)
T1 sequence: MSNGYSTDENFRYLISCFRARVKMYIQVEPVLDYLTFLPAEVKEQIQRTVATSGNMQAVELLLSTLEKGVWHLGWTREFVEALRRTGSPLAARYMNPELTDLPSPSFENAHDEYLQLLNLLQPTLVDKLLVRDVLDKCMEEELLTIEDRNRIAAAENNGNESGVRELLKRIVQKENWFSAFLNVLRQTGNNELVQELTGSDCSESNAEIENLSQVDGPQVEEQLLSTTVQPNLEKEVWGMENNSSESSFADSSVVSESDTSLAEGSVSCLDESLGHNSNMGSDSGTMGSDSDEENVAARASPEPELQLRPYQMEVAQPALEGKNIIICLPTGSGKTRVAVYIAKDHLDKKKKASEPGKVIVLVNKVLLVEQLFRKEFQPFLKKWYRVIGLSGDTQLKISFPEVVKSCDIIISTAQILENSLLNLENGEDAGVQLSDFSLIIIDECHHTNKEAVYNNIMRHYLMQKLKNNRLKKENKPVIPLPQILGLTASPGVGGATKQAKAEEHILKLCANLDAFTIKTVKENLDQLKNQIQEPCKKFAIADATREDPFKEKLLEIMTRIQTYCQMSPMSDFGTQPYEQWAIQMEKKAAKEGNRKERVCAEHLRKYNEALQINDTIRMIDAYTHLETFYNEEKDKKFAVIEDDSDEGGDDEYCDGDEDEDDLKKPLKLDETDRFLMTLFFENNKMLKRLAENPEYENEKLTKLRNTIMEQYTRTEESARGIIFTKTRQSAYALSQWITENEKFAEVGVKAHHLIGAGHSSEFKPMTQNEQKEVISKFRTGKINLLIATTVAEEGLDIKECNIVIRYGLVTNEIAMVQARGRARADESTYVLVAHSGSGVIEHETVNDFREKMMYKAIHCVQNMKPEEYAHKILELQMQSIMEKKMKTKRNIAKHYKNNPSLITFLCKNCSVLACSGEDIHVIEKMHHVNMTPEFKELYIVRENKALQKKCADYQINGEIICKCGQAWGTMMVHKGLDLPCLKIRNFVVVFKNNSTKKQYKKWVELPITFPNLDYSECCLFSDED

RIG-I = molecular target: T2, RIG-I (UniProt O95786 1-925)
T2 sequence: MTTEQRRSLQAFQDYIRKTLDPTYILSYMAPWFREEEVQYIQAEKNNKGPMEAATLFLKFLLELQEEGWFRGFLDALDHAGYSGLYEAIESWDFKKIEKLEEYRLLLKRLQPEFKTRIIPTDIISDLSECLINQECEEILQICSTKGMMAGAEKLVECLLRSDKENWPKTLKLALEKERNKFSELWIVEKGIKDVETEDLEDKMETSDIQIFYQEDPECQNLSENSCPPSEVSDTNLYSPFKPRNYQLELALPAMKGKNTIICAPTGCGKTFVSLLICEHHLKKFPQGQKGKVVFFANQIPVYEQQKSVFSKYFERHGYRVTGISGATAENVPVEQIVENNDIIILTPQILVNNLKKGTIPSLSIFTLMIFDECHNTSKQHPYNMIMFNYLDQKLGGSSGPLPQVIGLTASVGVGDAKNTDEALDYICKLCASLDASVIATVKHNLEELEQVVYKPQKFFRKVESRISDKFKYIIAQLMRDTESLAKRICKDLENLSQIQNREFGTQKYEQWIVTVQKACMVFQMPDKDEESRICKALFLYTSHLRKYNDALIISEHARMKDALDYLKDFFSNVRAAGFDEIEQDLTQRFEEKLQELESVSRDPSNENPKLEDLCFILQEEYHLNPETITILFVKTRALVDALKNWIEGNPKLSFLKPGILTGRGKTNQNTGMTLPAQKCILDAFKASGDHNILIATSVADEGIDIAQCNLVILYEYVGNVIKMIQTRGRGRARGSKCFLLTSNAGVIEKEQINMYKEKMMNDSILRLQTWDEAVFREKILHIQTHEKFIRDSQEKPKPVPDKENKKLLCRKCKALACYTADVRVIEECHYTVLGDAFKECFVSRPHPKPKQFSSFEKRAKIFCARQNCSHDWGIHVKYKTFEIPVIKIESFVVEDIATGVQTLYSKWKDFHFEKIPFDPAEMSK

LGP2 = molecular target: T3, LGP2 (UniProt Q96C10 1-678)
T3 sequence: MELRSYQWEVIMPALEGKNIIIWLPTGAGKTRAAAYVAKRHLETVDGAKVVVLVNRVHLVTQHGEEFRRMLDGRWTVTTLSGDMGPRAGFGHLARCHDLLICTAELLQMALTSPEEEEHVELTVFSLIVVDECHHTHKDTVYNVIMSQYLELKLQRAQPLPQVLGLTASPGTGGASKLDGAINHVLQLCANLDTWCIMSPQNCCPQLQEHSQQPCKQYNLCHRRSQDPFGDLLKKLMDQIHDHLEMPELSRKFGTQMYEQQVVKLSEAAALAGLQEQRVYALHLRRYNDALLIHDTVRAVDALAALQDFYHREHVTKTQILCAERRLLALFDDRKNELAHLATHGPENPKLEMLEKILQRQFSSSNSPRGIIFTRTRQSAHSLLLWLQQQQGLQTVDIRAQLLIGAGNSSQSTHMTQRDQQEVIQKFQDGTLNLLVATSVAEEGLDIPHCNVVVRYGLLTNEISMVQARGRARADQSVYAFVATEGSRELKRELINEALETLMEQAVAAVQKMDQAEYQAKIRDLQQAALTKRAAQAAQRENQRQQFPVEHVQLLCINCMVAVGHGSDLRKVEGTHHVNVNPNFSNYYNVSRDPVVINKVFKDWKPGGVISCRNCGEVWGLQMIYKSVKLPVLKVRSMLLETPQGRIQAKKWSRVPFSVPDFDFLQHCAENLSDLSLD

B1: siLuc-36 (dsRNA)
RNA 1: UCUUCCAGCGGAUAGAAUGGC
RNA 2: CAUUCUAUCCGCUGGAAGAUG
B1: no binding (MDA5); binds (RIG-I); binds (LGP2).
